Reference: patent US20170204382A1

T1: GDF11 (UniProt O95390)
T1 sequence (looked up): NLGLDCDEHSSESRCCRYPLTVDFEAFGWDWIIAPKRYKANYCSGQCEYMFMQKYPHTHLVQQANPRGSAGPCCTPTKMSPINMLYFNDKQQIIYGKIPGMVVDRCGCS

T2: Activin A (UniProt P08476)
T2 sequence (looked up): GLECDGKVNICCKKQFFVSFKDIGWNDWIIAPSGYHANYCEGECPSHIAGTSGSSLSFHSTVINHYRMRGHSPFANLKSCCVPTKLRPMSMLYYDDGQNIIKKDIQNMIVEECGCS

B1: ActRIIB(22-131)-hFc (Fc fusion, not shown: a dimerising Fc or GST)
chain: GEAETRECIYYNANWELERTNQSGLERCEGEQDKRLHCYASWRNSSGTIELVKKGCWLDDFNCYDRQECVATEENPQVYFCCCEGNFCNERFTHLPEAGGPEVTYEPPPT
B2: ActRIIB(20-131)-hFc (Fc fusion, not shown: a dimerising Fc or GST)
chain: GRGEAETRECIYYNANWELERTNQSGLERCEGEQDKRLHCYASWRNSSGTIELVKKGCWLDDFNCYDRQECVATEENPQVYFCCCEGNFCNERFTHLPEAGGPEVTYEPPPT
B3: ActRIIB(24-131)-hFc (Fc fusion, not shown: a dimerising Fc or GST)
chain: AETRECIYYNANWELERTNQSGLERCEGEQDKRLHCYASWRNSSGTIELVKKGCWLDDFNCYDRQECVATEENPQVYFCCCEGNFCNERFTHLPEAGGPEVTYEPPPT
B4: ActRIIB(23-131)-hFc (Fc fusion, not shown: a dimerising Fc or GST)
chain: EAETRECIYYNANWELERTNQSGLERCEGEQDKRLHCYASWRNSSGTIELVKKGCWLDDFNCYDRQECVATEENPQVYFCCCEGNFCNERFTHLPEAGGPEVTYEPPPT
B5: ActRIIB(21-131)-hFc (Fc fusion, not shown: a dimerising Fc or GST)
chain: RGEAETRECIYYNANWELERTNQSGLERCEGEQDKRLHCYASWRNSSGTIELVKKGCWLDDFNCYDRQECVATEENPQVYFCCCEGNFCNERFTHLPEAGGPEVTYEPPPT
B6: ActRIIB(20-128)-hFc (Fc fusion, not shown: a dimerising Fc or GST)
chain: GRGEAETRECIYYNANWELERTNQSGLERCEGEQDKRLHCYASWRNSSGTIELVKKGCWLDDFNCYDRQECVATEENPQVYFCCCEGNFCNERFTHLPEAGGPEVTYEP
B7: ActRIIB(20-132)-hFc (Fc fusion, not shown: a dimerising Fc or GST)
chain: GRGEAETRECIYYNANWELERTNQSGLERCEGEQDKRLHCYASWRNSSGTIELVKKGCWLDDFNCYDRQECVATEENPQVYFCCCEGNFCNERFTHLPEAGGPEVTYEPPPTA

These binders were tested against T1, GDF11 (assay: cell-based or functional assay).
B1 showed an IC50 (ng/mL), conditioned media of 71 ng/mL. B2 showed an IC50 (ng/mL), conditioned media of 183 ng/mL. Work on B3 yielded an IC50 (ng/mL), conditioned media of 69 ng/mL. With B4 the IC50 (ng/mL), conditioned media was 60 ng/mL. B5 gave an IC50 (ng/mL), conditioned media of 121 ng/mL.

The binders below were run against T2, Activin A (assay: cell-based or functional assay).
With B1 the IC50 (ng/mL), conditioned media was 100 ng/mL. Work on B2 yielded an IC50 (ng/mL), conditioned media of 201 ng/mL. B3 showed an IC50 (ng/mL), conditioned media of 105 ng/mL. For B4, the IC50 (ng/mL), conditioned media was 43 ng/mL. B5 gave an IC50 (ng/mL), conditioned media of 325 ng/mL.

Target: T1, GDF11
Assay: cell-based or functional assay
Remark: another data set of the same source
Binder B2 has an IC50 (ng/mL), conditioned media of 120 ng/mL. B6 was tested, and the IC50 (ng/mL), conditioned media was 130 ng/mL. Work on B7 yielded an IC50 (ng/mL), conditioned media of 87 ng/mL.

Target: T2, Activin A
Assay: cell-based or functional assay
Remark: another data set of the same source
Work on B2 yielded an IC50 (ng/mL), conditioned media of 44 ng/mL. With B6 the IC50 (ng/mL), conditioned media was 158 ng/mL. Work on B7 yielded an IC50 (ng/mL), conditioned media of 32 ng/mL.
